The values below come from US7070943B2 (priority 1998, dated 2006).

What all share (format): cell-based, Human
In series [1] the test system is U937 cells. Put plainly: Growth and viability of U937 cells, trypan blue exclusion. To be noted: U937, 170 nM (20 μg/ml). An excerpt:
FIG. […] The percentage of dead cells was estimated based on the trypan blue exclusion test. The percentage of cells in the respective phases was estimated flow cytometrically based on their DNA content. Apoptotic cells (Ap) were recognized as the cells with fractional DNA content (sub-G1), as previously described;
Human histiocytic lymphoma U-937 cells were purchased from American Type Culture Collection (Manassas, Va., USA) and were maintained in RPMI 1640 medium supplemented with 10% fetal bovine serum, 100 U/ml of penicillin, 100 μg/ml streptomycin and 2 mM glutamine (all from Life Technologies, Grand Island, N.Y., USA). The suspension cultures were passaged by re-seeding the cells at a density of 1×10^5 cells/ml. The cells were studied during their exponential and asynchronous growth, generally within 72 hours of their re-seeding in medium with fresh serum, before reaching density of 8×10^5 cells/ml. The cultures were periodically tested for Mycoplasma infection by staining of cytocentrifuge preparations with the DNA fluorochrome 4,6-diamidino-2-phenylindole (DAPI; Molecular Probes, Eugene, Oreg., USA).
ONCONASE®, provided by Alfacell (Bloomfield, N.J., USA), was diluted in RPMI to the final concentrations as shown in the Results below and figure legends above. […]

Series [2] concerns U937 cells. Put plainly: Cell cycle distribution and apoptotic (sub-G1) cells by DNA content flow cytometry. The note with it: U937, 170 nM. As for the experimental part:
FIG. 11 presents growth and viability curves (a) as well as cell cycle distribution (b) of U937 cells maintained in the absence (CTRL) and presence of 170 nM (2.0 μg/ml) ONCONASE® (ONC) for up to 72 h. The percentage of dead cells was estimated based on the trypan blue exclusion test. The percentage of cells in the respective phases was estimated flow cytometrically based on their DNA content. Apoptotic cells (Ap) were recognized as the cells with fractional DNA content (sub-G1), as previously described;
(§1) Anti-cyclin D3 mAb immunofluorescence in combination with DNA content was measured by multiparameter flow cytometry (a). The cells were growing either in the absence (Exp, exponential growth) or in the presence of 170 nM ONCONASE® for 48 hours (Onc). There were 48%, 38% and 14% of cells in G1, S, and G2/M in Exp culture compared with 64%, 24% and 13% cells in G1, S, and G2/M, respectively, in Onc culture. The scattergrams represent bivariate distributions of the cells with respect to their cyclin D3 vs. DNA content associated fluorescence intensities. The upper level of the isotype-matched control (mean fluorescence+3 standard deviations) is marked in the Exp panel with a dashed line. The bar plots represent the mean FITC (anti-cyclin D3 mAb) fluorescence values (arbitrary units) of the cells in different phases of the cycle (gated based on differences in DNA content as shown in the Exp panel), after subtraction of the background fluorescence, i.e., mean fluorescence of the same cells but stained with isotype-matched control IgG antibody. Western blots (b) show expression of cyclin D3 in control culture and in the culture treated with Onconase 48 h;
Following incubations in the absence or presence of ONCONASE®, the cells were washed with phosphate-buffered saline (PBS) and fixed in suspension in either ice-cold 80% ethanol or absolute methanol for up to 24 h. After fixation, the cells were washed twice with PBS and then suspended in 1 ml of 0.25% Triton X-100 (Sigma, St. Louis, Mo., USA) in PBS on ice for 5 min. The cells were then centrifuged (300 g, 5 min), the cell pellet suspended 100 μl PBS containing 0.5 μg of the anti-cyclin (or anti-CKI) mAb and 1% bovine serum albumin (BSA; Sigma), and incubated for 2 h at room temperature. Anti-cyclin D3 (clone G107-565); anti-cyclin E (clone HE12); anti-p16^INK4a (clone G175-405); and […] (clone SX118) and anti-p27^KIP1 (clone G173-524) mAbs, all were obtained from PharMingen (San Diego, Calif., USA). After incubation with the respective mAbs the cells were rinsed with PBS containing 1% BSA and incubated with the FITC-conjugated goat anti-mouse IgG antibody (Molecular Probes) diluted 1:30 in PBS containing 1% BSA for 30 min at room temperature in the dark. […]
Cellular fluorescence was measured with the ELITE ESP flow cytometer/cell sorter (Coulter, Miami, Fla., USA) using either argon ion laser (emission at 488 nm) alone or combined with helium-cadmium laser (emitting UV light). In the first case, fluorescence signals were collected using the standard configuration of the flow cytometer (green fluorescence, representing directly or indirectly FITC-labeled antibodies; red fluorescence representing CYCHROME® tagged anti-pRB^T mAb). In the second case, DNA content was analyzed based on DAPI fluorescence (blue emission) excited by UV light, while the anti-pRB^P− mAb (FITC) and anti-pRB^T (Cy-Chrome®) related emission was excited with blue light laser. […]
Background: A flow cytometer gives signals particle by particle.

In the next series the test system is cyclin D3. Put plainly: Cyclin D3 expression by multiparameter flow cytometry in U937 cells. The note with it: U937, 170 nM. As for the experimental part:
as §1, with “The cells were growing either in the absence (Exp, exponential growth) or in the presence of 170 nM ONCONASE® for 48 hours (Onc).” left out, “Western blots (b) show expression of cyclin D3 in control culture and in the culture treated with Onconase 48 h;” left out
Cellular fluorescence was measured with the ELITE ESP flow cytometer/cell sorter (Coulter, Miami, Fla., USA) using either argon ion laser (emission at 488 nm) alone or combined with helium-cadmium laser (emitting UV light). […] In the second case, DNA content was analyzed based on DAPI fluorescence (blue emission) excited by UV light, while the anti-pRB^P− mAb (FITC) and anti-pRB^T (Cy-Chrome®) related emission was excited with blue light laser.

For the next series, the system named is cyclin E. Put plainly: Cyclin E expression by multiparameter flow cytometry in U937 cells. To be noted: U937 cells growing in presence of drug. The protocol:
(§2) Following incubations in the absence or presence of ONCONASE®, the cells were washed with phosphate-buffered saline (PBS) and fixed in suspension in either ice-cold 80% ethanol or absolute methanol for up to 24 h. After fixation, the cells were washed twice with PBS and then suspended in 1 ml of 0.25% Triton X-100 (Sigma, St. Louis, Mo., USA) in PBS on ice for 5 min. The cells were then centrifuged (300 g, 5 min), the cell pellet suspended 100 μl PBS containing 0.5 μg of the anti-cyclin (or anti-CKI) mAb and 1% bovine serum albumin (BSA; Sigma), and incubated for 2 h at room temperature. […]
(§3) Cellular fluorescence was measured with the ELITE ESP flow cytometer/cell sorter (Coulter, Miami, Fla., USA) using either argon ion laser (emission at 488 nm) alone or combined with helium-cadmium laser (emitting UV light). In the first case, fluorescence signals were collected using the standard configuration of the flow cytometer (green fluorescence, representing directly or indirectly FITC-labeled antibodies; red fluorescence representing CYCHROME® tagged anti-pRB^T mAb). In the second case, DNA content was analyzed based on DAPI fluorescence (blue emission) excited by UV light, while the anti-pRB^P− mAb (FITC) and anti-pRB^T (Cy-Chrome®) related emission was excited with blue light laser.

Another series deals with p21^WAF1/CIP1. Put plainly: p21^WAF1/CIP1 expression by flow cytometry in U937 cells. To be noted: U937, 170 nM, 72 hours. The protocol:
as §2, §3

B1: ONCONASE®: basic protein of 12,000 MW isolated from oocytes or early embryos of Rana pipiens, homologous to pancreatic RNase A (protein, UniProt P22069 1-104, looked up)
Protein P-30: QDWLTFQKKHITNTRDVDCDNIMSTNLFHCKDKNTFIYSRPEPVKAICKGIIASKNVLTTSEFYLSDCNVTSRPCKYKLKKSTNKFCVTCENQAPVHFVGVGSC
In the case of B1, the cell proliferation suppressed entry with U937 cells [1] (initial 72 hours of treatment) is on record as “approximately 50%”. This molecule came in with a cells dead in the series on U937 cells [1] (initial 72 hours, trypan blue) below 10%. In the series with U937 cells [2] (48 hours (Exp culture 14%)), the “cells in G2/M” value is given as 13%. Also, in the series on U937 cells [2] (48 hours (Exp culture 38%)), the “cells in S” value is listed as 24%. Besides, the “cells in G1” value in the series on U937 cells [2] (48 hours (Exp culture 48%)) came to 64%. In addition, the “proportion of cells in G0/1 phase” value in the series on U937 cells [2] (after 72 h (from 47% in control)) was around 70%. The “percentage of apoptotic cells (sub-G1)” value in the series on U937 cells [2] (up to 72 h (from 2%)) is given as 6%. Moreover, the “decrease of overall level of cyclin D3” value with cyclin D3 (after 24 h) is listed as “about 20%”. For the same molecule, in the series on cyclin D3 (after 48 hours), the “reduction of overall level of cyclin D3” value is “over 70%”. The “expression of cyclin E” value with cyclin E is given as “not significantly changed”. Further, in the series on p21^WAF1/CIP1, the “increase in p21^WAF1/CIP1” value is given as “Over four-fold”.
